Experimental data reported in publication PMC4506582, “Plasmodium falciparum coronin organizes arrays of parallel actin filaments potentially guiding directional motility in invasive malaria parasites” (Malaria Journal, 2015).

Tests used:
[1] = biological target: rabbit skeletal muscle actin (filamentous, Mg-ATP-actin polymerised) (rabbit, UniProt P68135 1-377); assay: co-sedimentation; conditions: both partners purified
[2] = biological target: the molecule itself; assay: SEC; Superdex 200 10/300, 50 mM MES pH 7.0, 100 mM NaCl, 2 mM DTT, 1 mM EDTA; single peak at ~13 mL, ~160 kDa

B1: PfCoronin 1-388 (N-terminal beta-propeller domain of Plasmodium falciparum coronin) (domain or fragment)
chain: MYNVPLIKNLYPDPSNNLYGDLRICSRATETCGIACSAGYIAVPWQVEGGGMIGVIRLENQVRNPPVIKLKSHTSPILDLSFNPCYSEILASCSEDMSIRIWEIRHEDENVNEVKDPLCILNGHKKKVNILSWNPMNYFILSSTSFDSSVNIWDIENEKKAFEINMPKKLSSLQWDIGGNLLSGTCQNKQIHIIDPRKQEICNSFLIHDGGKSTKCIWIDGFGGEDKCILTTGFSKNNMRELKLWSLKNTTSPLTTITLDNAASPLLPHYDESVGMIYLIGKGDGNCRYYQYSQGSIRKVDEYKSCLPFRSFGFLPKRMCDVYKCEIGRVYKNENNTDIRPISFYVPRKNSSIFQEDLYPPIIMRDPERSTNKWIDGINLDIKRVSIK
Kd [1]: 956 nM

B2: His-PfAldolase (Plasmodium falciparum fructose 1,6 bisphosphate aldolase) (enzyme, UniProt Q7KQL9 1-369, looked up)
chain: MAHCTEYMNAPKKLPADVAEELATTAQKLVQAGKGILAADESTQTIKKRFDNIKLENTIENRASYRDLLFGTKGLGKFISGAILFEETLFQKNEAGVPMVNLLHNENIIPGIKVDKGLVNIPCTDEEKSTQGLDGLAERCKEYYKAGARFAKWRTVLVIDTAKGKPTDLSIHETAWGLARYASICQQNRLVPIVEPEILADGPHSIEVCAVVTQKVLSCVFKALQENGVLLEGALLKPNMVTAGYECTAKTTTQDVGFLTVRTLRRTVPPALPGVVFLSGGQSEEEASVNLNSINALGPHPWALTFSYGRALQASVLNTWQGKKENVAKAREVLLQRAEANSLATYGKYKGGAGGENAGASLYEKKYVY
notes: Detected by anti-His Western blot in the sedimentation assay; source: E. coli BL21 (DE3), purified (IMAC, cation exchange, SEC); not shown: His6, N-terminal, kept
stoichiometry N [2]: ~4
